For assay [1], the target named is T1, neonatal Fc receptor (FcRn), endogenous in U937 cells (human, UniProt P55899 24-365; P61769 21-119).
T1 construct: whole, on cells; Free FcRn was stained intracellularly after fixation and permeabilisation
The assay can be described thus: FcRn occupancy, FACS, U937 cells, without albumin.
Protocol: (§1) Next, FcRn occupancy was tested using a cell-based FcRn occupancy assay in the presence or absence of albumin. […] Cells (HEK FcRn mut or U937) were plated in a 96-well microplate. Cells were incubated with test article for two hours, shaking at 37° C., pH 7.4 in FACS buffer. Plates were then transferred immediately on ice and cells were collected by centrifugation at 4° C. Cells stained for viability in FACS buffer at pH 6 and then fixed/permeabilized in permeabilization buffer at pH 6. […] Cells were analyzed by FACS, ensuring that they are kept on ice until immediately prior to analysis.

Assay [2] deals with T1, neonatal Fc receptor (FcRn), endogenous …. The assay can be described thus: FcRn occupancy, FACS, U937 cells, with albumin.
Protocol: as §1
Assay [3] deals with T2, human serum albumin (human, UniProt P02768 25-609).
T2 construct: Immobilised on SPR chips; also added in solution in the FcRn occupancy assays; also called HSA; humanSA
The experiment in a line: SPR Biacore 8K+ SCK, albumin on chip, ratio of KD. (In general: Surface plasmon resonance follows binding to a sensor surface in real time, without labels.)

The target in assay [4] is T3, cynomolgus monkey serum albumin (cynomolgus monkey, UniProt A2V9Z4 25-608).
T3 construct: Immobilised on SPR chips; also called cynoSA; cynomolgus albumin
The experiment in a line: SPR Biacore 8K+ SCK, albumin on chip, pH 7.4.

The target in assay [5] is T2, human serum albumin. The assay can be described thus: SPR Biacore 8K+ SCK, albumin on chip, pH 7.4.
Assay [6] deals with T3, cynomolgus monkey serum albumin. The experiment in a line: SPR Biacore 8K+ SCK, albumin on chip, pH 7.4. The source holds these as a separate data set.
Assay [7] deals with T4, mouse serum albumin (mouse, UniProt P07724 25-608).
T4 construct: Immobilised on SPR chips; also called mouseSA; MSA
The experiment in a line: SPR Biacore 8K+ SCK, albumin on chip, pH 7.4.

The target in assay [8] is T2, human serum albumin. The assay can be described thus: SPR Biacore 8K+ SCK, albumin on chip, pH 5.5.
Assay [9] concerns the target T2, human serum albumin. The experiment in a line: SPR Biacore 8K+ SCK, albumin on chip, pH 7.4. The source holds these as a separate data set.
Assay [10] has as its target T3, cynomolgus monkey serum albumin. The experiment in a line: SPR Biacore 8K+ SCK, albumin on chip, ratio of KD.
In assay [11] the target is T2, human serum albumin. The experiment in a line: SPR Biacore 8K+ SCK, albumin on chip, pH 7.4. The source holds these as a separate data set.
For assay [12], the target named is T3, cynomolgus monkey serum albumin. The experiment in a line: SPR Biacore 8K+ SCK, albumin on chip, pH 5.5.
Assay [13] deals with T2, human serum albumin. The assay can be described thus: SPR (Biacore), albumin binding at pH 5.5 and pH 7.4; concentration not given; the legend says only albumin, the example names albumin coated and construct flown over.

Substitutions are numbered along the chain they refer to.

T1 sequence (P55899 24-365 limits assumed, chain 1 of 2): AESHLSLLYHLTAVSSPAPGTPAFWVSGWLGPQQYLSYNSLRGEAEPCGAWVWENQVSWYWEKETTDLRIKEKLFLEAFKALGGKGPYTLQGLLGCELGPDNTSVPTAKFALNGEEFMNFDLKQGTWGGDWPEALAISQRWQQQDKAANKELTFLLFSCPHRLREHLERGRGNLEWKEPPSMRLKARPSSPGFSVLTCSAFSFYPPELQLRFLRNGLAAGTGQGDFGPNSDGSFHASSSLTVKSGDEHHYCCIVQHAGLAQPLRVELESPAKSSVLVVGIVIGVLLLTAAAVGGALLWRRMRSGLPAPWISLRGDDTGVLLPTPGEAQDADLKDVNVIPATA
T1 sequence (P61769 21-119 limits assumed, chain 2 of 2): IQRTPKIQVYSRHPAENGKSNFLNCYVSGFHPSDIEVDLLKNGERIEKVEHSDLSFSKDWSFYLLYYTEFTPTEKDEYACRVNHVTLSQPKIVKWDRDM

B1: TA-Alb23-Fc-ABDEG (Fc fusion)
chain: EVQLLESGGGLVQPGGSLRLSCAASGFTFRSFGMSWVRQAPGKGPEWVSSISGSGSDTLYADSVKGRFTISRDNSKNTLYLQMNSLRPEDTAVYYCTIGGSLSRSSQGTLVTVSSDKTHTCPPCPAPELLGGPSVFLFPPKPKDTLYITREPEVTCVVVDVSHEDPEVKFNWYVDGVEVHNAKTKPREEQYNSTYRVVSVLTVLHQDWLNGKEYKCKVSNKALPAPIEKTISKAKGQPREPQVYTLPPSRDELTKNQVSLTCLVKGFYPSDIAVEWESNGQPENNYKTTPPVLDSDGSFFLYSKLTVDKSRWQQGNVFSCSVMHEALKFHYTQKSLSLSPG
notes: Two Alb23 VHH fragments at the N-termini of both Fc domains of efgartigimod; also called two-armed N-terminal anti-HSA-Fc-ABDEG
One may read the IC50 as the concentration needed to halve the response being measured. B1 showed a 50% inhibitory concentration (IC50) in assay [1] of 7.5 nM. In addition, in [2], the “% max occupancy” value is 39.1% and the IC50 came to 389 nM.

B2: OA-Alb23-Fc-ABDEG (Fc fusion)
chain: B1 chain with T261W
Fc: DKTHTCPPCPAPELLGGPSVFLFPPKPKDTLYITREPEVTCVVVDVSHEDPEVKFNWYVDGVEVHNAKTKPREEQYNSTYRVVSVLTVLHQDWLNGKEYKCKVSNKALPAPIEKTISKAKGQPREPQVYTLPPSRDELTKNQVSLSCAVKGFYPSDIAVEWESNGQPENNYKTTPPVLDSDGSFFLVSKLTVDKSRWQQGNVFSCSVMHEALKFHYTQKSLSLSPG
Take B2: it took 8.5 nM to reach half-maximal inhibition in assay [1] (IC50). In assay [2], the “% max occupancy” value was 51.1% and 25 nM corresponded to half-maximal inhibition (IC50).

B3: Alb23 M34A (VHH)
VHH: EVQLLESGGGLVQPGGSLRLSCAASGFTFRSFGASWVRQAPGKGPEWVSSISGSGSDTLYADSVKGRFTISRDNSKNTLYLQMNSLRPEDTAVYYCTIGGSLSRSSQGTLVTVSS
notes: VHH alone
By Kd is commonly meant the free concentration of one partner at which half of the binding sites on the other are occupied at equilibrium, for simple one-to-one binding. The koff is a measure of how fast the partners let go of each other. What is called kon is a measure of how fast the partners come together. Turning to B3, the “KD pH 5.5/pH 7.4” value in assay [3] and in assay [10] was 0.42 in each case. Further, the Kd worked out at 182 nM in assay [4]; 175 nM in assay [5]; 182 nM in assay [6]; 149 nM in assay [7]; 73.8 nM in [8]; 175 nM in assay [11]. In addition, the Kd in [12] was determined as 76 nM. The off-rate constant (koff) stood at 0.356 s⁻¹ in assay [4], 0.0837 s⁻¹ in assay [8], 0.226 s⁻¹ in assay [11] and 0.0831 s⁻¹ in assay [12]. Besides, the on-rate (kon) in assay [4] came to 1.95e+06 M⁻¹ s⁻¹; in assay [8] it was 1.13e+06 M⁻¹ s⁻¹; in [11] it was 1.29e+06 M⁻¹ s⁻¹; in assay [12], 1.09e+06 M⁻¹ s⁻¹. Further, the “fold decrease in affinity compared to the parental Alb23 VHH fragment” value in assay [9] was at least 10 fold.

B4: TA-Fc-ABDEG-Alb23 (Fc fusion)
chain: DKTHTCPPCPAPELLGGPSVFLFPPKPKDTLYITREPEVTCVVVDVSHEDPEVKFNWYVDGVEVHNAKTKPREEQYNSTYRVVSVLTVLHQDWLNGKEYKCKVSNKALPAPIEKTISKAKGQPREPQVYTLPPSRDELTKNQVSLTCLVKGFYPSDIAVEWESNGQPENNYKTTPPVLDSDGSFFLYSKLTVDKSRWQQGNVFSCSVMHEALKFHYTQKSLSLSPGGGGGSGGGGSGGGGSGGGGSEVQLLESGGGLVQPGGSLRLSCAASGFTFRSFGMSWVRQAPGKGPEWVSSISGSGSDTLYADSVKGRFTISRDNSKNTLYLQMNSLRPEDTAVYYCTIGGSLSRSSQGTLVTVSS
notes: also called Fc-ABDEG-Alb23 (two-armed)
In the case of B4, the binding result in assay [13] is “binds”. Also, in assay [2], the “% max occupancy” value was 69.7% and the IC50 turned out to be 14.5 nM.

These data come from patent US20260152573A1 (ARGENX, published 2026).
